Assay results from the supplement of paper PMC12764529.
± gives the half width of the 95% confidence interval.

Tests used:
[1] = folding stability dG unfold (combined trypsin and chymotrypsin); higher = more stable
Method in brief: (§1)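 Bayesian fitting of sequencing counts gave K50 for each design. Unfolding free energy followed by setting this against a sequence-predicted unfolded-state K50 and a shared folded-state K50, either per protease or with trypsin and chymotrypsin combined. The designs, under 80 residues and lacking cysteine, were digested in a PA-tagged cDNA display format at 11 threefold-diluted protease concentrations and without protease, and only those with AlphaFold2 dimer inter-PAE above 15 were kept.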

[2] = folding stability dG unfold from trypsin proteolysis; higher = more stable
Method in brief: as §1

[3] = folding stability dG unfold from chymotrypsin proteolysis; higher = more stable
Method in brief: as §1

Row | Sequence | folding stability dG unfold [1] | folding stability dG unfold [2] | folding stability dG unfold [3]
1 | SAGATATPPAVRVATARLPLPFGTGTEVTVTTYSDGSATVTARFPDGVVATAFVSPDGSAVVTVAPAGGSAG [r5_168_TrMRF] | 2.41 ± 0.061 kcal/mol | 0.992 ± 0.064 kcal/mol | 2.955 ± 0.024 kcal/mol
2 | SAGGMKIKVTVEVTFPDGTVRTFPVPDATSEEEVRAILAERGFGDLADVPIRITEREPVPAVPPEELLSAGG [r13_493_JUSTAS] | 1.69 ± 0.071 kcal/mol | 1.68 ± 0.033 kcal/mol | 1.76 ± 0.043 kcal/mol
3 | MKAHVTVVDLEDRYRARIELELPDGRVLVFEFEFDSWEEAIEFIRGLIAALPEDEVEIDHIEFLPPDGDPSS [r1_169_TrMRF] | 4.46 ± 0.1 kcal/mol | 3.92 ± 0.091 kcal/mol | 4.73 ± 0.051 kcal/mol
4 | SAGGSAGGSAGPRYRLRIELRLERNEDGSLSLSAKIEIERIEPPPPPPRVVLYNGKLYLLSAGGSAGGSAGG [r17_418_TrROS_Hall] | 4.28 ± 0.34 kcal/mol | 3.91 ± 0.41 kcal/mol | 4.35 ± 0.21 kcal/mol
5 | SAGGSAGGSGVLVRITATHPDGSTEEVLEIEVPNDENDPAKLKAIAEELAKKAGMKNIKIELLSAGGSAGGS [r12_569_JUSTAS] | 2.31 ± 0.07 kcal/mol | 1.95 ± 0.047 kcal/mol | 2.49 ± 0.027 kcal/mol
6 | SAGGSAGGSAGGLPNIPGFVLLETYSETFNVPLPENRTATITKTLILHPNALLESYSINPSAGGSAGGSAGG [r7_945_TrMRF] | -0.251 ± 0.27 kcal/mol | -0.198 ± 0.27 kcal/mol | -0.353 ± 0.23 kcal/mol
7 | SAGGSAGGSAMNRYRILLLDPENGKPLVFELPGNMTPEEAKEAAEELAERFGVTVVAIEGFPSAGGSAGGSA [r18_322_TrMRF] | 4.11 ± 0.057 kcal/mol | 3.18 ± 0.044 kcal/mol | 4.362 ± 0.021 kcal/mol
8 | SAGGSAGGSAGGKVLKIKFSSIEEILEYIKNNDSVTIVVLDENDNPIGTITVEVKPGSLSAGGSAGGSAGGS [r10_193_TrMRF] | 2.5 ± 0.092 kcal/mol | 1.67 ± 0.046 kcal/mol | 2.89 ± 0.039 kcal/mol
9 | KVEIKVEIEVKYNKETGKKVVKIRITVKEGSKEEAEKLAAELAKELFGPNVKVTVEYDKETDEITVTLVFPS [r1_273_TrROS_Hall] | 3.96 ± 0.2 kcal/mol | 3.57 ± 0.15 kcal/mol | 4.06 ± 0.18 kcal/mol
10 | SAGGSEEKVFEFEVVEVTSVEVKEDGTVTIEVTVRLENGLLLTVRVTFDLATNEVTIEVELRPLPESAGGSA [r2_321_TrROS_Hall] | 4.41 ± 0.2 kcal/mol | 3.38 ± 0.35 kcal/mol | 4.49 ± 0.19 kcal/mol
11 | SAGGSAGGSAGKKKKKPKPIVLVIKVKTKEEAEKLAEKLKELGFKVEIVEKKDGYLVIKLSAGGSAGGSAGG [r17_323_TrROS_Hall] | 3.39 ± 0.18 kcal/mol | 2.11 ± 0.12 kcal/mol | 3.8 ± 0.15 kcal/mol
12 | SAGGSAKTVSIWIPDDLPNMPIEELIKEVMKAFPPGDEIKDIDVEPWPNGGYMYTFTVNGKEVIIWSAGGSA [r15_451_TrROS] | 1.78 ± 0.17 kcal/mol | 1.29 ± 0.043 kcal/mol | 1.93 ± 0.1 kcal/mol
13 | SAGGMKTLKIKIKVPEDEEKAEELAKKLEELFGLKVEVEKKDGELTITVEVSEEVRELLKELGVEIEPSAGG [r13_156_TrROS_Hall] | 3.79 ± 0.16 kcal/mol | 2.58 ± 0.16 kcal/mol | 4.15 ± 0.089 kcal/mol
14 | SAGGSAGGSAGGMMRIRIKIYNVETGEWKEIEIEVPESVKEITLEIELPEGWRIVEIEVESAGGSAGGSAGG [r7_687_TrROS_Hall] | 5.32 ± 0.14 kcal/mol | 5.39 ± 0.52 kcal/mol | 5.22 ± 0.087 kcal/mol
15 | KKKIKKIEIEIKIPVKSIEEAKEEVEKLAKELKEKFPEIKKIKVEIIKYDEKKGYITVKITIEVNGKKIEFS [r1_52_TrROS_Hall] | 1.52 ± 0.28 kcal/mol | 1.56 ± 0.2 kcal/mol | 1.24 ± 0.13 kcal/mol
16 | SAGGSAGGSAGGGMSFKKRKGSISLTLRVTLTLPNGTPATLDIELELEEETVEPVYPELESAGGSAGGSAGG [r7_926_JUSTAS] | 4.19 ± 0.24 kcal/mol | 2.87 ± 0.086 kcal/mol | 4.76 ± 0.14 kcal/mol

Row | Sequence | folding stability dG unfold [1] | folding stability dG unfold [2] | folding stability dG unfold [3]
17 | SAGGSAGGSMSTTETTVTEVTITVRSDGKVSREVKVTVTTTTTITPAGGTATVTTTTTRTPLESAGGSAGGS [r12_409_JUSTAS] | 1.19 ± 0.051 kcal/mol | 1.01 ± 0.053 kcal/mol | 1.3 ± 0.018 kcal/mol
18 | SAGGSAGGSKPRPIDIMFPNPENGRPVMIRIEYTKDKIKAEWYFGNKPQEKKIDDPEDLLEFISAGGSAGGS [r12_299_TrROS] | 0.754 ± 0.096 kcal/mol | 0.0886 ± 0.055 kcal/mol | 1.08 ± 0.1 kcal/mol
19 | SAGGSAKVKIEFFQMPPGGNPRDMQKKAQDKGDIFIIVNKPGWMIVITADDPEDANTIAKEILEEFSAGGSA [r15_546_TrROS] | 0.954 ± 0.092 kcal/mol | 0.735 ± 0.086 kcal/mol | 1.08 ± 0.11 kcal/mol
20 | SAGGSANGYFILIKIEEIKLTKMRRDPDGKQWQWNFSVKIKIEVVKVFRIKPDPNGNWKIEPGDPISAGGSA [r15_162_TrROS] | 3.25 ± 0.12 kcal/mol | 3.01 ± 0.11 kcal/mol | 3.33 ± 0.053 kcal/mol
21 | SAGGSAVTITVDDFEDIEDAEITLTRPDGRPVVARVRVEKGEGAPRVTVLWREPGSGRYRVETFPLSAGGSA [r15_1006_TrMRF] | 1.28 ± 0.07 kcal/mol | 0.925 ± 0.074 kcal/mol | 1.49 ± 0.1 kcal/mol
22 | SAGGSAGGNMIPVKARMKWPDGKEFPFEIMVQYQPDGQMQIEIQNPGDGETVTFPNMKLIDVEISAGGSAGG [r6_255_TrROS] | 0.469 ± 0.06 kcal/mol | -0.656 ± 0.26 kcal/mol | 0.828 ± 0.021 kcal/mol
23 | SAGGMNVTVTVELVPLPDEPVLFVTVETEDGSVSVITFDPATGTATVLKVSPTKTEITTVPAEDILLASAGG [r13_328_TrMRF] | 2.43 ± 0.2 kcal/mol | 1.8 ± 0.13 kcal/mol | 2.79 ± 0.11 kcal/mol
24 | SAGGSAGGSMEVDIEVETLETEVSFLPGDLIKVKKLVKITLPNGEVLEEETEEIIPKSEIGKLSAGGSAGGS [r12_1028_JUSTAS] | 0.419 ± 0.24 kcal/mol | 0.808 ± 0.078 kcal/mol | -0.00695 ± 0.12 kcal/mol
25 | SAGKETVKLVVVNKETNKVVEVTFNKDGEIVSVKVFEVKPAPPPPPVELSEEQLVKTKDGKWRSLEELKSAG [r5_685_TrROS_Hall] | 0.829 ± 0.11 kcal/mol | -0.369 ± 0.13 kcal/mol | 1.19 ± 0.075 kcal/mol
26 | SAGGPATLTFEFPAEDGSRVRVEVTVEEVPFVDPRTGEPVAPFLKVHVKVTVFDEDGEAHEAEFELLSAGGS [r8_474_TrMRF] | 3.73 ± 0.12 kcal/mol | 2.22 ± 0.043 kcal/mol | 4.21 ± 0.075 kcal/mol
27 | SAGLKEIAKKLGLSEEKIKIKEIKKKKKVVYDKKTKKKYEKEEIVIKIEIVDPKTKKKYEIEIPLEEIKSAG [r5_517_TrROS_Hall] | 2.55 ± 0.22 kcal/mol | 2.28 ± 0.18 kcal/mol | 2.63 ± 0.18 kcal/mol
28 | SAGGSASLEEVIESVTKPLGAKGEIDPETGVTYVQDPSGENLTLETEDGRPLKVTYEPEGKWTAVESAGGSA [r15_256_JUSTAS] | 0.24 ± 0.28 kcal/mol | 0.301 ± 0.046 kcal/mol | -0.199 ± 0.45 kcal/mol
29 | SAGGSAGGSAVKIKIEQLGPGYFHITIEQEMMYPDGKSRKMTMTMMFKVNAPPNDPALRELLSAGGSAGGSA [r18_215_TrROS] | 2.97 ± 0.13 kcal/mol | 2.69 ± 0.059 kcal/mol | 2.98 ± 0.088 kcal/mol
30 | SAGGSAGGSAGGEIKVEVVPVDGKLRVKVTLEDGEKIEIEVPENTTLDELKKLAEELAKKSAGGSAGGSAGG [r7_265_TrROS_Hall] | 1.94 ± 0.11 kcal/mol | 1.55 ± 0.083 kcal/mol | 2.12 ± 0.077 kcal/mol
31 | SMSRPVEVEFELPLEGEGPVRLRATLVVDPESGVVEIPVRARFPEREEDVDLPPELLERLARRVLEELGGSA [r9_1136_TrMRF] | 1.1 ± 0.034 kcal/mol | 0.744 ± 0.031 kcal/mol | 1.25 ± 0.034 kcal/mol
